Laboratory results taken from patent US20240010747A1, “ANTI-MRP4 (ENCODED BY ABCC4 GENE) ANTIBODIES AND USES THEREOF” (Kenjockety Biotechnology, Inc., priority 2020, published 2024).

T1: human ABCC4 (Homo sapiens, UniProt O15439)
T1 construct: expressed in transfected cells
T1 sequence (O15439 1-1325): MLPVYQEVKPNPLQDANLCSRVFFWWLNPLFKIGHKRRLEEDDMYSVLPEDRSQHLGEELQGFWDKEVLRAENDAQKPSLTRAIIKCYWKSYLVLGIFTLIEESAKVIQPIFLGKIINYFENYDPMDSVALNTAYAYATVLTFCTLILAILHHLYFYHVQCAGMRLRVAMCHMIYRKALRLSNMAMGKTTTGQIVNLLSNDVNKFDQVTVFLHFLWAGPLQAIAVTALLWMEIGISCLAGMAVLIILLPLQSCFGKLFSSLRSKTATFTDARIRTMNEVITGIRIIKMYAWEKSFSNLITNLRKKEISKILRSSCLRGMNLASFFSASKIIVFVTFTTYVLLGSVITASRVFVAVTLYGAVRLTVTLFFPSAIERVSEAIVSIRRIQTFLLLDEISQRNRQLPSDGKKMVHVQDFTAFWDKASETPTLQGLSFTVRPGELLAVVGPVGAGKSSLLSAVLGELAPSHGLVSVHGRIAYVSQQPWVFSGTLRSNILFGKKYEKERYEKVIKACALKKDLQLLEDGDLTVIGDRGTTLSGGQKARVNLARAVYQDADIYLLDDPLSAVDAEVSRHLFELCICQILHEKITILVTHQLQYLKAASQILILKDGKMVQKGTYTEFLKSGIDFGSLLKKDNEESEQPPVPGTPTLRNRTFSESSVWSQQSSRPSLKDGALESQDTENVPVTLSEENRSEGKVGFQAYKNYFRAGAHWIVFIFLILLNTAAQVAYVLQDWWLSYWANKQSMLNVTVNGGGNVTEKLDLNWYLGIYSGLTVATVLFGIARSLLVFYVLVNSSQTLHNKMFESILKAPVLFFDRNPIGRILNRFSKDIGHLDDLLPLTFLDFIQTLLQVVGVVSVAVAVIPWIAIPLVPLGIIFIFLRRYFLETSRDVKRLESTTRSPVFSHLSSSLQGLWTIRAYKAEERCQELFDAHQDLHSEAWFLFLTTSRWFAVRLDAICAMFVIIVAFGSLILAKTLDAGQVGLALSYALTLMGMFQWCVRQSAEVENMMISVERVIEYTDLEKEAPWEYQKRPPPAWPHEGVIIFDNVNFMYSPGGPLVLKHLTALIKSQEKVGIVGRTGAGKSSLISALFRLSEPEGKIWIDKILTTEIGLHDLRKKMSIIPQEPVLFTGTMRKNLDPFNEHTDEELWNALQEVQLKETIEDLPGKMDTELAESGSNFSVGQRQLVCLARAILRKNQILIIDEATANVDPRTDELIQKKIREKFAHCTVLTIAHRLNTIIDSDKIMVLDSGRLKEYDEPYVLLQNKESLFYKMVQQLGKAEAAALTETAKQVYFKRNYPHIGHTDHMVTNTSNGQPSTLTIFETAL


What was measured:
human ABCC4 [1] = molecular target: T1, human ABCC4; assay: Flow cytometry (FACS) binding to C6 cells stably transfected to express human ABCC4 (different experiment, Table 4); details: for Human ABCC4 binding: C6 cells stably transfected to express human ABCC4, FACS, different experiment, Table 4; for binding to human ABCC4 expressed on cell surface: Table 4 study, stated in words
Experimental: (§1) Binding titration of recombinant antibodies to ABCC4 transfectants was performed by serial dilution of antibodies from about 666 nM. Diluted antibody in flow cytometry buffer was incubated with cells on ice for 30 min. After 2 washes with flow cytometry buffer, bound antibody was detected with PE-labeled F(ab′)2 fragment goat anti-human IgG (Jackson ImmunoResearch) diluted 1:200 in flow cytometry buffer and incubated with cells for 20 min on ice. After 2 washes with flow cytometry buffer fluorescence was measured on an Attune N×T flow cytometer. Data were analyzed with GraphPad Prism 8.0 software to determine EC50's.
(§2) Human embryonic kidney HEK 293T cells and murine C6 (ATCC CCL-107) were transfected with human or cynomolgus ABCC4 cDNA with C-terminal fused FLAG tag in a pMONO-hygro vector with Lipofectamine 3000 (Invitrogen #L3000001). The cells were treated with 0.2 mg/ml and 0.5 mg/ml hygromycin respectively for about 2 weeks while cultivated in DMEM and 10% FBS with 0.2 mg/ml hygromycin and 0.5 mg/ml hygromycin, respectively. The cells were washed with PBS, and stained with […] of anti-FLAG-PE after fixing and permeablization. Clones expressing ABCC4 were single-cell sorted into 200 μl DMEM with 10% FBS using a BD Aria FACS machine and cultivated in 96 well plates using standard techniques in an incubator at 37° C. and 5% CO 2. Two weeks later clones expressing high levels of ABCC4 were screened and amplified.
(§3) Antibody binding to cells was evaluated by flow cytometry. Murine C6 cells stably transfected to express human or cynomolgus ABCC4 were washed once in flow cytometry buffer (PBS+2% FBS+0.02% sodium azide), resuspended at 2×10^6 cells/mL in flow cytometry buffer, and dispensed into 96-well microtiter plates at 0.1 mL/well. Recombinant antibodies were added to cells at 5 ug/mL for initial binding confirmation, or serially diluted from 100 ug/mL in flow cytometry buffer. After incubating cells on ice for 30 min, cells were washed twice with flow cytometry buffer. Bound antibody was detected with PE-labeled F(ab′)2 fragment goat anti-human IgG (Jackson ImmunoResearch) and evaluated on an Attune N×T flow cytometer. EC50 is calculated to be the concentration of antibody that gives half maximal response.
(§4) In a different experiment, using a different C6.cC4 cell line, detecting the binding of anti-ABCC4 antibodies to C6 cells stably transfected to express human ABCC4 measured by FACS and to C6 cells stably transfected to express cynomolgus ABCC4 measured by FACS, the results set forth in Table 4 were obtained. Negative (−)=Rmax (MFI) below background level. Positive (+)=MFI>3× background level.

cynomolgus ABCC4 [2] = assay: Flow cytometry (FACS) binding to C6 cells stably transfected to express cynomolgus ABCC4 (different experiment, different C6.cC4 cell line, Table 4); design: key to Cynomolgus ABCC4 binding: Negative (−)=Rmax (MFI) below background level; Positive (+)=MFI>3× background level; details: for Cynomolgus ABCC4 binding: different C6.cC4 cell line, C6 cells stably transfected to express cynomolgus ABCC4, FACS, Table 4; for binding to cynomolgus ABCC4 expressed on cell surface: Table 4 study, stated in words
Experimental: as §1, §2, §3, §4

human ABCC4 [3] = molecular target: T1, human ABCC4; assay: Flow cytometry (FACS) binding to C6 cells stably transfected to express human ABCC4 (Table 3 study); details: for Human ABCC4 binding: C6 cells stably transfected to express human ABCC4, FACS, Table 3; for binding to human ABCC4 expressed on cell surface: Table 3 study, stated in words
Experimental: as §1, §2, §3
(§5) Table 3 lists the following characteristics of the rat anti-ABCC4 antibodies tested: binding to C6 cells stably transfected to express human ABCC4 measured by FACS and binding to C6 cells stably transfected to express cynomolgus ABCC4 measured by FACS. Negative (−) is defined as maximum response (Rmax(MFI)) below background level. Positive (+) is defined as MFI>1000.

cynomolgus ABCC4 [4] = assay: Flow cytometry (FACS) binding to C6 cells stably transfected to express cynomolgus ABCC4 (Table 3 study); design: key to Cynomolgus ABCC4 binding: Negative (−) is defined as maximum response (Rmax(MFI)) below background level; Positive (+) is defined as MFI>1000; details: for Cynomolgus ABCC4 binding: C6 cells stably transfected to express cynomolgus ABCC4, FACS, Table 3; for binding to cynomolgus ABCC4 expressed on cell surface: Table 3 study, stated in words
Experimental: as §1, §2, §3, §5

Row | Molecule | Human ABCC4 binding (human ABCC4 [1]) | Human ABCC4 binding (human ABCC4 [3]) | binding to human ABCC4 expressed on cell surface (human ABCC4 [3]) | binding to human ABCC4 expressed on cell surface (human ABCC4 [1]) | Cynomolgus ABCC4 binding (cynomolgus ABCC4 [2]) | Cynomolgus ABCC4 binding (cynomolgus ABCC4 [4]) | binding to cynomolgus ABCC4 expressed on cell surface (cynomolgus ABCC4 [4]) | binding to cynomolgus ABCC4 expressed on cell surface (cynomolgus ABCC4 [2])
1 | C4.927: anti-ABCC4 antibody raised in rats; VH SEQ ID NO: 4, VL SEQ ID NO: 127 (antibody, V domains shown) VH: EVQLVESGPGLVQPSRTLSLTCTVSGFSLTSYGVSWVRQPPGKGLEWIAAIWSGGSTDYNSALKSRLSISRDTSKSQVLLKMNSLQTEDTAMYFCARGATEGIDYWGQGASVTVSS VL: AIQVTQSPTSLSASLGDRVTLTCRASQDINNKMAWYQQKPGEVPQLLIYYASTLQSGTPSRFSGSGSGTDFSFTISHLQSEDFATYYCLQGYSLYTFGAGTKLELK | + (Positive (+)=MFI>3× background level) |  |  |  | − |  |  | 
2 | C4.886: anti-ABCC4 antibody raised in rats; VH SEQ ID NO: 2, VL SEQ ID NO: 125 (antibody, V domains shown) VH: EVKLLESGGDLLQPGRSLKLSCAASGFTFNDYNMAWVRQAPKKGLQWVATILYDGSRTYYRDSVKGRFTISRDNSKSTLYLQMDSLRSEDTATYYCTTEFGYGSSHWFACWGQGTLVTVSS VL: DVVLTQTPVSLPVSLGGQASISCRSSQSLVHSNGNTYLHWYLQKPGQSPQLLISRISNRFSGVPDRFSGSGSGTDFTLKISRVEPEDLGDYYCFQSTHFPHTFGAGTKLEIK | + (Positive (+)=MFI>3× background level) | + (Positive (+) is defined as MFI>1000) |  | bind to both human and cynomolgus ABCC4 | + (Positive (+)=MFI>3× background level) | − |  | bind to both human and cynomolgus ABCC4
3 | C4.1155: anti-ABCC4 antibody raised in rats; VH SEQ ID NO: 35, VL SEQ ID NO: 154 (antibody, V domains shown) VH: EVKLLESGGGLVQPGGSLRLSCATSGFSFTDFYMSWIRQPLGKAPEWLGVIRNRAIGFRTEYNPSVKGRFTISRDNTQNILYLQMNTLRTEDTAIYYCARNNLGFDYWGQGASVTVSS VL: TPPSLSVAIGQSVSISCKSSQSLVYSDGKTYLHWLLQISGRSPERLIYQVSNLDSGVPDRFSGTGSQKDFTLKISRVEAKDLGFYYCAQTTHFPYTFGAGTKLELK | + (Positive (+)=MFI>3× background level) |  |  |  | − |  |  | 

More lines, main results first:

Row | Human ABCC4 binding (human ABCC4 [1]) | Human ABCC4 binding (human ABCC4 [3]) | binding to human ABCC4 expressed on cell surface (human ABCC4 [3]) | binding to human ABCC4 expressed on cell surface (human ABCC4 [1]) | Molecule | Cynomolgus ABCC4 binding (cynomolgus ABCC4 [2]) | Cynomolgus ABCC4 binding (cynomolgus ABCC4 [4]) | binding to cynomolgus ABCC4 expressed on cell surface (cynomolgus ABCC4 [4]) | binding to cynomolgus ABCC4 expressed on cell surface (cynomolgus ABCC4 [2])
4 | + (Positive (+)=MFI>3× background level) | + (Positive (+) is defined as MFI>1000) | bind to both human and cynomolgus ABCC4 | bind to both human and cynomolgus ABCC4 | C4.961: anti-ABCC4 antibody raised in rats; VH SEQ ID NO: 9, VL SEQ ID NO: 130 (antibody, V domains shown) VH: EVQLKESGPGLVQPSQTLSLTCAVSGFSLTNYHVHWVRQPPGKGLEWMGVMWSDGDTSYNSALKSRLSISRDTSKSQFFLKMNSLQTEDTATYYCARGGVYFDYWGQGASVTVSS VL: DIVMTQSPSSLAVSAGETVTINCKSSQSLLYSGNQKNSLAWYQQKPGQSPKLLIYWASTRQSGVPDRFIGSGSGTDFTLTFSSVQAEDLAIYYCQHYFDTPYTFGAGTKLELK | + (Positive (+)=MFI>3× background level) | + (Positive (+) is defined as MFI>1000) | bind to both human and cynomolgus ABCC4 | bind to both human and cynomolgus ABCC4
5 | + (Positive (+)=MFI>3× background level) | + (Positive (+) is defined as MFI>1000) |  | bind to both human and cynomolgus ABCC4 | C4.953: anti-ABCC4 antibody raised in rats; VH SEQ ID NO: 6, VL SEQ ID NO: 129 (antibody, V domains shown) VH: QVTLKESGPGILQPSQTLSLTCTFSGFSLSTYGMGVGWIRQPSGKALEWLANIWWDDDKSYNPSLKNRLTISKGTSNNQAFLKITSVDTADSATYHCARIGSGNSEFDYWGQGVMVTVSS VL: DVVLTQSPSSLSASLGDRVTITCRASQDIGNYLTWFQQKPGKSPRRMIYGATNLAAGVPSRFSGSRSGSDYSLTISSLESEDVADYHCLQSIQYPFTFGSGTKLEIK | + (Positive (+)=MFI>3× background level) | − |  | bind to both human and cynomolgus ABCC4
6 | + (Positive (+)=MFI>3× background level) | + (Positive (+) is defined as MFI>1000) | bind to both human and cynomolgus ABCC4 | bind to both human and cynomolgus ABCC4 | C4.976: anti-ABCC4 antibody raised in rats; VH SEQ ID NO: 12, VL SEQ ID NO: 132 (antibody, V domains shown) VH: EVKLLESGGGLVQPGRSLKVSCVASGFIFSDYYMAWVRQAPTKGLEWVAYINYDGGSTYYGDSVKGRFTISRDNAKSSLYLQMNSLRFEDMATYYCARRDYGSKFDYWGQGVMVTVSS VL: EIVIIQSPALAVSLGQRATISCKTNQNVDYYGNSYIHWYQQKPGQQPKLLIYLASNLASGIPARFSGRGSGTDFTLTIDPVEADDPATYYCQQSRNLPFTFGSGTKLELK | + (Positive (+)=MFI>3× background level) | + (Positive (+) is defined as MFI>1000) | bind to both human and cynomolgus ABCC4 | bind to both human and cynomolgus ABCC4
